Target: F-actin (human (endogenous in T cells)) (UniProt P60709)

mobile fraction (MF) of the EGFP-tagged ezrin by FRAP in human T cells, no pretreatment, with SDF-1 | mobile fraction (MF) of the EGFP-tagged ezrin by FRAP in human T cells, no pretreatment, without SDF-1 | mobile fraction (MF) of the EGFP-tagged ezrin by FRAP in human T cells, pretreated with latrunculin A (1 μM, 30 min), with SDF-1 | mobile fraction (MF) of the EGFP-tagged ezrin by FRAP in human T cells, pretreated with latrunculin A (1 μM, 30 min), without SDF-1 | Substance
0.18 | 0.25 | 0.81 | 0.72 | T567D ezrin-EGFP (from UniProt P15311 1-586) (natural protein)
0.64 | 0.74 | 0.79 | 0.81 | wild type (WT) ezrin-EGFP (from UniProt P15311 1-586) (natural protein)

Source: PMC3619129
